Measurements from paper PMC6896899.

Target: megalin (human (endogenous in primary PTECs)) (UniProt P98164)
Sequence of UniProt P98164 (P98164 26-4655): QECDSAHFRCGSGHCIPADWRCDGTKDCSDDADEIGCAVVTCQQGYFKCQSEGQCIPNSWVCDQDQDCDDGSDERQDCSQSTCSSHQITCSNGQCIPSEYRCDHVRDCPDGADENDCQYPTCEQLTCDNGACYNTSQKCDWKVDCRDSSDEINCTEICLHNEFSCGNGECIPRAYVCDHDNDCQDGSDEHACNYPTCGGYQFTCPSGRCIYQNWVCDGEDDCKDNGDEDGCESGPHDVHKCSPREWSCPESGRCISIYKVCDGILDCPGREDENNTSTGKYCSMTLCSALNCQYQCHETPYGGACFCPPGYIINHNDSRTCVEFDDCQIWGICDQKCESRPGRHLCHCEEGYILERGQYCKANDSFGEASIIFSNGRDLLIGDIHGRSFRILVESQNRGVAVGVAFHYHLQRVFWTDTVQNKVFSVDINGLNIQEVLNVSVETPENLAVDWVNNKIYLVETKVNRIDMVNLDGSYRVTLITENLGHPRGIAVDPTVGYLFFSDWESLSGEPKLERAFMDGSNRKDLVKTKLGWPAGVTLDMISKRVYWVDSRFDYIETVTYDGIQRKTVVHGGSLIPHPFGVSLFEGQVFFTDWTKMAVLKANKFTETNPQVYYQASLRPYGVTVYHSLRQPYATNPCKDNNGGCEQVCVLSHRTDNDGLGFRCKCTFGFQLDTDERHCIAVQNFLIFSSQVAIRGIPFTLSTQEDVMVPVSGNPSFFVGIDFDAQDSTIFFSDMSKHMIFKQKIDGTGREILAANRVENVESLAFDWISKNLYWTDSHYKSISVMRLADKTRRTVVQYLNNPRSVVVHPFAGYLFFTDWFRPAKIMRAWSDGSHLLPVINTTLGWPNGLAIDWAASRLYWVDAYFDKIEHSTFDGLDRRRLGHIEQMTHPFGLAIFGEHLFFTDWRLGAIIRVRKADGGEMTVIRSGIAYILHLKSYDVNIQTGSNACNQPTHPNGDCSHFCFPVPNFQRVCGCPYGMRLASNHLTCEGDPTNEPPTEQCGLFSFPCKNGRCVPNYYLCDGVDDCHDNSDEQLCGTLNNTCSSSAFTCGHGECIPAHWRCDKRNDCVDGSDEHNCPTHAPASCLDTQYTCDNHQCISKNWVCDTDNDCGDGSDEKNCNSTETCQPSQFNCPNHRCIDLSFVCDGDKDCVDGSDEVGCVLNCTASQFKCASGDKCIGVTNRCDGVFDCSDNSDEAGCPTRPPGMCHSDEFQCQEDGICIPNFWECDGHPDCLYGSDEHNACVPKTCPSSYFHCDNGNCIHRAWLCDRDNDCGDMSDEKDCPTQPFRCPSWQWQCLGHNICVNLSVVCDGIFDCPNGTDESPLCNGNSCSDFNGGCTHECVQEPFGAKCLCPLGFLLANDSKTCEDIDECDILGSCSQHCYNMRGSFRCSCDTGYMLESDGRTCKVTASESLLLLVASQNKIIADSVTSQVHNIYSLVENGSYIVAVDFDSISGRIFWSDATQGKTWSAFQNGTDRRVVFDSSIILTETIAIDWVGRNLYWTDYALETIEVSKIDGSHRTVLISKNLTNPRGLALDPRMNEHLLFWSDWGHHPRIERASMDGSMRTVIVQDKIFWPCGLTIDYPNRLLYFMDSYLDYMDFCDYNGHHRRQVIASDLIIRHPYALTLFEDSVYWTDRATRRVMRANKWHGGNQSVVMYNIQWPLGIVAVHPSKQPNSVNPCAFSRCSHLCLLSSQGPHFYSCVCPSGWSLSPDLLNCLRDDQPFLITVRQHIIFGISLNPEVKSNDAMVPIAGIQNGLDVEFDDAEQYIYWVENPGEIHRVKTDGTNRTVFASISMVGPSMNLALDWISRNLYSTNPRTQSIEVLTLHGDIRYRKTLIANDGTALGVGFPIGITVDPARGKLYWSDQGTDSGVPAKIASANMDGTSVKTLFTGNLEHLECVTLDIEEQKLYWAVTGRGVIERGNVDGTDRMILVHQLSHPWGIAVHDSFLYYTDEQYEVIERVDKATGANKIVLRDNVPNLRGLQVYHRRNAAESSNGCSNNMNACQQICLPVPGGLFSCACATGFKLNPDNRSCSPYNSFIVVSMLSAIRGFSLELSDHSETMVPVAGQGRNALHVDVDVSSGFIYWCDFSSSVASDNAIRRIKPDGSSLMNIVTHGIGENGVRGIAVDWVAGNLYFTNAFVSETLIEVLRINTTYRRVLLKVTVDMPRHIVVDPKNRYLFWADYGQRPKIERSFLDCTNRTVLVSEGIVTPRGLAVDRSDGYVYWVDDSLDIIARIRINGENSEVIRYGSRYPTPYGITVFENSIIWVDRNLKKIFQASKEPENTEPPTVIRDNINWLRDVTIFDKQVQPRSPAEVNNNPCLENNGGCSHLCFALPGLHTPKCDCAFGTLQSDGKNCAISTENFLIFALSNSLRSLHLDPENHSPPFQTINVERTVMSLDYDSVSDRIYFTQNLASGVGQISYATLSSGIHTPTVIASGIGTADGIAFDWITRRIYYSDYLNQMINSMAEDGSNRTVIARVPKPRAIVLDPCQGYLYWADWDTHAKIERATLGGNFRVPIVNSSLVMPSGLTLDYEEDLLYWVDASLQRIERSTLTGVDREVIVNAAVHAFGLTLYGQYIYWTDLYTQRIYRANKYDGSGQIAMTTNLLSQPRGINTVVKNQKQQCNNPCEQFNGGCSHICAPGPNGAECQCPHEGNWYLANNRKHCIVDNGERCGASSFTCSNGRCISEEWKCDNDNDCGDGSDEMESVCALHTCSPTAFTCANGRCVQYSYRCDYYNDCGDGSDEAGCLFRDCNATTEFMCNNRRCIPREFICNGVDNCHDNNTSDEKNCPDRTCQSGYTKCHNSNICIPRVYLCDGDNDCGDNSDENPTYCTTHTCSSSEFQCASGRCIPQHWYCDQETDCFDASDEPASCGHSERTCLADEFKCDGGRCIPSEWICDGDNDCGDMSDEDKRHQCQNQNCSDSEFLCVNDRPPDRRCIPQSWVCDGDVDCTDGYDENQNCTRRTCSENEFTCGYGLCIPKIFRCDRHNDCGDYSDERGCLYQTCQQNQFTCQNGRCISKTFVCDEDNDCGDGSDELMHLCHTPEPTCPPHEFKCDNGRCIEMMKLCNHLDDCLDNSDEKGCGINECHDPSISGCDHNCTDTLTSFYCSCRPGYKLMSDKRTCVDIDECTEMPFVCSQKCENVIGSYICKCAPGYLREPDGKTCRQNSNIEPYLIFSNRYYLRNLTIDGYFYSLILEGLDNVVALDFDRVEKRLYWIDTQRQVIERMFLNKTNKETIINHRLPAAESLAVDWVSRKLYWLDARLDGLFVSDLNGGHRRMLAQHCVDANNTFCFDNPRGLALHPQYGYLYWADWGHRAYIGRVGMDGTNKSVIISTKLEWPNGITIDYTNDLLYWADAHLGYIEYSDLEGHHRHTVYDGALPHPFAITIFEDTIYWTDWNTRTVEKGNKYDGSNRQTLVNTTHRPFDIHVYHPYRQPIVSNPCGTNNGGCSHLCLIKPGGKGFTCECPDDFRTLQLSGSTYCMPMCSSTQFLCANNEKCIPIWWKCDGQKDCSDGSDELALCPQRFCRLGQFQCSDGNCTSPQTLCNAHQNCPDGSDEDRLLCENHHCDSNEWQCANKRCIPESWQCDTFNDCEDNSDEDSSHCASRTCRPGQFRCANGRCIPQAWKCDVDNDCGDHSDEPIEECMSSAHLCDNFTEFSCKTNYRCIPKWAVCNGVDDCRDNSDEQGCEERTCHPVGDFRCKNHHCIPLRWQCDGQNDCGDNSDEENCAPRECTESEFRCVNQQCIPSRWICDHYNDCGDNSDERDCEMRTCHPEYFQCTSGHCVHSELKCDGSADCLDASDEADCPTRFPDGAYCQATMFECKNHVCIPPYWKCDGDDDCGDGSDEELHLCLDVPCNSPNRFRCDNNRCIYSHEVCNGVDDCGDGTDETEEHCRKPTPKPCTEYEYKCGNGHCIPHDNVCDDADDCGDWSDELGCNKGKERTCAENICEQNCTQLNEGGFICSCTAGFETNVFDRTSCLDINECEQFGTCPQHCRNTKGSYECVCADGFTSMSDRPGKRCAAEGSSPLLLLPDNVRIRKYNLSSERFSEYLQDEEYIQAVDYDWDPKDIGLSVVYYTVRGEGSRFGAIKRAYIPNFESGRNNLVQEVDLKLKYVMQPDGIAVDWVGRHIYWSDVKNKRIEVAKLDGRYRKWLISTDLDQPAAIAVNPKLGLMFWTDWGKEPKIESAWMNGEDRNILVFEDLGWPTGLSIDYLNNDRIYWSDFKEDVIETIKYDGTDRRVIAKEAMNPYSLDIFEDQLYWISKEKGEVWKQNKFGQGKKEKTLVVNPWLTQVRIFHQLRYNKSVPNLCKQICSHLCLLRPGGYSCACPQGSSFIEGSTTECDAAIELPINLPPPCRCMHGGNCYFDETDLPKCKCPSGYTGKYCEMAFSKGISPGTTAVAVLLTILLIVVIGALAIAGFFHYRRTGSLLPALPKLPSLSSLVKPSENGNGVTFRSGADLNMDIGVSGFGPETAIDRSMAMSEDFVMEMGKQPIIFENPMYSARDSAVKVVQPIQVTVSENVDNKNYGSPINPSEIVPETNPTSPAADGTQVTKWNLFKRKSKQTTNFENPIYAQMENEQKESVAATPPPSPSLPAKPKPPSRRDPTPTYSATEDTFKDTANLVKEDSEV

- intrinsic clearance of 25OHD3 loss (CLint,25OHD3) from the perfusion medium of the PT-MPS with 3 uM DBP; fold-change with 1 uM RAP (megalin inhibitor) against no RAP, geometric mean of 5 donors (fold reduction): 2.4
Substance: Mixed type human vitamin D binding protein (from UniProt P02774 17-474) (natural protein)
